{"source": "paper PMC12732928", "about": "“The Study of Ice-Binding Protein Oligomeric Complexes” (International Journal of Molecular Sciences, 2025)", "proteins": {"B1": {"name": "ice-binding protein P80961 from longhorn sculpin (Myoxocephalus octodecemspinosus) (natural protein)", "chain": "MKFSLVATIVLLALAQGSFAQGAADLESLGQYFEEMKTKLIQDMTEIIRSQDLANQAQAFVEDKKTQLQPLVAQIQEQMKTVATNVEEQIRPLTANVQAHLQPQIDNFQKQMEAIIKKLTDQTMAIEN"}}, "key": {"[1]": {"target": "the molecule itself", "assay": "MALDI-TOF mass spectrometry; protein at 0.4 mM desalted on a C4 ZipTip, alpha-CHCA matrix, positive linear mode, 8-190 kDa"}, "[2]": {"target": "the molecule itself", "assay": "MALDI-TOF mass spectrometry; samples obtained after freezing; otherwise as the other MALDI spectra; high-order forms of low intensity"}}, "note": "Where “and” joins values, the source holds several entries; their conditions need not be identical. Equal values may be shown once."}
{"protein": "B1", "values": [{"measurement": "stoichiometry N", "setting": "[1]", "result": "2 and 3 and 4"}, {"measurement": "stoichiometry N", "setting": "[2]", "result": "5 and 6 and 7"}]}
